Test results: publication PMC3787745, “Yeast Mnn9 is both a priming glycosyltransferase and an allosteric activator of mannan biosynthesis” (Open Biology, 2013)

Experiments:
[1] = substrate: Cc1cc(=O)oc2cc(O[C@H]3O[C@H](CO)[C@@H](O)[C@H](O)[C@@H]3O)ccc12; assay: coupled fluorimetric assay with Aman6 mannosidase (4-MU release); format: biochemical, Saccharomyces cerevisiae; details: acceptor varied 0-10 mM, 1.2 mM GDP-Man, 10 mM MnCl2, 20 mM HEPES pH 7.5, 500 nM enzyme
[2] = substrate: Nc1nc2c(ncn2[C@@H]2O[C@H](COP(=O)(O)OP(=O)(O)O[C@H]3O[C@H](CO)[C@@H](O)[C@H](O)[C@@H]3O)[C@@H](O)[C@H]2O)c(=O)[nH]1; assay: as above; format: biochemical, Saccharomyces cerevisiae; details: donor varied 0-1.2 mM, 10 mM 4MU-Man, 10 mM MnCl2, 20 mM HEPES pH 7.5, 500 nM enzyme

B1: ScMnn9 (Saccharomyces cerevisiae S288C) (protein)
chain: EGHIAHYDLNKLHSTSEAAVNKEHILILTPMQTFHQQYWDNLLQLNYPRELIELGFITPRTATGDLALKKLENAIKKVQTDKKTQRFSKITILRQNSQSFDKLMEKERHALDVQKERRAAMALARNELLFSTIGPHTSWVLWLDADIIETPPSLIQDMTKHNKAILAANIYQRFYDEEKKQPSIRPYDFNNWQESDTGLEIASQMGDDEIIVEGYAEIATYRPLMAHFYDANGVPGEEMALDGVGGGCTLVKAEVHRDGAMFPNFPFYHLIETEGFAKMAKRLNYDVFGLPNYLVYHIEEENH
notes: glycosyltransferase domain 93-395, lacking first 92 residues; N-terminal MBP-His6-TEV tag cleaved; E. coli BL21(DE3) pLysS
- Km [1]: 6.5 (±0.3) mM
- kcat [1]: 0.0033 s⁻¹
- Km [2]: 0.5 (± 0.2) mM
- kcat [2]: 0.0633 s⁻¹
